The supplement of paper PMC10567573

B1: STX11 (parent)
chain: FQRAMHDYNQAEMKQRDNCKIRIQ

Variants of: B1
Assay: protein stability index of a GFP-peptide fusion (GPS, HEK-293T) (PSI 1-6); higher = more stable
Details: c terminus: a fixed tail appended
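Further: lentivirally expressed fusions sorted by FACS into six bins by GFP to DsRed ratio, PSI derived from sequencing read proportions per bin multiplied by bin number.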

Protein stability index: each site, then its substitutions
R3: V 2.86; T 2.93; S 2.51; H 2.97; A 2.94; P 2.99; Y 2.25; F 2.07; I 2.38; N 3.12; D 3.44; G 2.88; C 1.65; Q 3.28; E 3.99; L 2.76; K 3.01; M 1.62
F1: W 3.69; Y 2.78; V 3.46
D7: M 2.85; R 2.12; T 2.23; H 2.3; C 1.71; F 1.17; P 2.23; A 2.67; Q 2.24; N 2.66; E 3.09; K 2.56; S 2.21; V 2.15; G 2.18; I 1.7; Y 1.67; L 1.43
Q2: I 2.27; C 1.79; M 2.69; N 3.61; D 4.2; L 2.65; A 2; Y 2.95; P 2.76; E 4; W 2.19; K 3.14; F 2.84; H 1.81; S 3.41; V 2.55; G 3.82; R 3.02; T 2.63
A4: C 2.21; T 2.69; G 2.19; D 3.4; W 1.77; S 2.8; I 2.18; F 2.86; P 3.3; R 1.9; V 2.28; K 2.54; M 2.22; N 2.78; E 3.15; H 2.75; L 2.46; Q 3.56; Y 2.59
M5: G 2.9; L 3.18; R 2.78; A 3.93; Y 1.88; T 3.15; N 3.1; S 2.63; I 2.16; H 2.16; P 2.64; F 1.8; K 2.86; Q 2.95; V 2.63; C 2.73; D 3.65; E 3.77
H6: P 2.5; N 3.3; S 1.9; M 1.96; F 2.32; L 2.91; I 2.42; R 2.16; K 2.74; T 3.06; W 2.43; D 2.92; Y 3.26; Q 2.66; G 2.9; A 2.74; E 4; V 2.8; C 2.7
Y8: L 2.39; M 3.15; I 3.08; Q 3.83; E 3.47; R 2.61; C 2.62; T 3.62; S 3.45; K 3.58; D 3.4; V 2.89; G 3.39; H 3; P 3.32; W 2.08; A 3.64; N 3.83; F 2.52
Q10: H 2.16; S 3.35; G 2.45; E 2.74; D 2.59; I 2.31; L 2.36; M 1.92; A 3.1; N 2.63; P 2.01; C 1.87; F 1.81; K 2.73; R 2.06
N9: G 2.33; K 2.29; A 2.47; Q 2.64; L 2.74; W 1.74; T 2.79; D 2.84; R 4.08; I 2.25; V 2; P 3.11; E 2.94; C 2.15; M 1.7; Y 1.74; F 1.83; S 2.91; H 2.93
